According to publication PMC3771917, “The Crystal Structure of the Orphan Nuclear Receptor NR2E3/PNR Ligand Binding Domain Reveals a Dimeric Auto-Repressed Conformation” (PLoS ONE, 2013):

B1: NR2E3 LBD (residues 192-410), wild type, as Gal4DBD–NR2E3LBD and VP16AD–NR2E3LBD [human] / itself (parent complex)
chain: DENIDVTSNDPEFPSSPYSSSSPCGLDSIHETSARLLFMAVKWAKNLPVFSSLPFRDQVILLEEAWSELFLLGAIQWSLPLDSCPLLAPPEASAAGGAQGRLTLASMETRVLQETISRFRALAVDPTEFACMKALVLFKPETRGLKDPEHVEALQDQSQVMLSQHSKAHHPSQPVRFGKLLLLLPSLRFITAERIELLFFRKTIGNTPMEKLLCDMFKN

Variants of: B1
Assay: mammalian two hybrid assay; pBind-PNR L372R + pACT-PNR L372R; parent: 0.42; read off a plot

| response [RLU] | Variant |
| --- | --- |
| ~0.045 | DENIDVTSNDPEFPSSPYSSSSPCGLDSIHETSARLLFMAVKWAKNLPVFSSLPFRDQVILLEEAWSELFLLGAIQWSLPLDSCPLLAPPEASAAGGAQGRLTLASMETRVLQETISRFRALAVDPTEFACMKALVLFKPETRGLKDPEHVEALQDQSQVMLSQHSKAHHPSQPVRFGKLRLLLPSLRFITAERIELLFFRKTIGNTPMEKLLCDMFKN [chain 1 L181R] |

Variants of: B1
Assay: mammalian two hybrid assay; pBind-PNR L372/375R + pACT-PNR L372/375R; parent: 0.42; read off a plot

| response [RLU] | Variant |
| --- | --- |
| ~0.055 | DENIDVTSNDPEFPSSPYSSSSPCGLDSIHETSARLLFMAVKWAKNLPVFSSLPFRDQVILLEEAWSELFLLGAIQWSLPLDSCPLLAPPEASAAGGAQGRLTLASMETRVLQETISRFRALAVDPTEFACMKALVLFKPETRGLKDPEHVEALQDQSQVMLSQHSKAHHPSQPVRFGKLRLLRPSLRFITAERIELLFFRKTIGNTPMEKLLCDMFKN [chain 1 L181R, chain 1 L184R] |

Variants of: B1
Assay: mammalian two hybrid assay; pBind-PNR L375R + pACT-PNR L375R; parent: 0.42; read off a plot

| response [RLU] | Variant |
| --- | --- |
| ~0.045 | DENIDVTSNDPEFPSSPYSSSSPCGLDSIHETSARLLFMAVKWAKNLPVFSSLPFRDQVILLEEAWSELFLLGAIQWSLPLDSCPLLAPPEASAAGGAQGRLTLASMETRVLQETISRFRALAVDPTEFACMKALVLFKPETRGLKDPEHVEALQDQSQVMLSQHSKAHHPSQPVRFGKLLLLRPSLRFITAERIELLFFRKTIGNTPMEKLLCDMFKN [chain 1 L184R] |
